Experimental data as given in US20230192896A1 (BIOVERATIV THERAPEUTICS, published 2023).
Residue numbers refer to the chain shown, from its start.

B1: BIIB-9-475 (antibody, V domains shown)
VH: QVQLQESGPGLVKPSETLSLTCTVSGGSISSYYWSWIRQPPGKGLEWIGSIYYSGSTNYNPSLKSRVTISVDTSKNQFSLKLSSVTAADTAVYYCARDVGGYDYGVGAFDIWGQGTMVTVSS
VL: DIQMTQSPSSLSASVGDRVTITCQASQDITNYLNWYQQKPGKAPKLLIYDASNLETGVPSRFSGSGSGTDFTFTISSLQPEDIATYYCQQSSNFPLTFGGGTKVEIK
notes: IgG
B2: BIIB-9-480 (antibody, V domains shown)
VH: QVQLQESGPGLVKPSETLSLTCAVSGYSISSGYYWGWIRQPPGKGLEWIGSSYHSGSTYYNPSLKSRVTISVDTSKNQFSLKLSSVTAADTAVYYCARDQQDYGAFDIWGQGTMVTVSS
VL: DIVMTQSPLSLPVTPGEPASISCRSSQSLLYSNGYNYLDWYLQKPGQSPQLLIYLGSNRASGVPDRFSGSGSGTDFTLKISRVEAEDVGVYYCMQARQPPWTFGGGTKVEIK
notes: IgG
B3: BIIB-9-608 (antibody, V domains shown)
VH: QLQLQESGPGLVKPSETLSLTCTVSGGSISSSSYYWGWIRQPPGKGLEWIGSIYYSGSTYYNPSLKSRVTISVDTSKNQFSLKLSSVTAADTAVYYCARDRLETSEAGMDVWGQGTTVTVSS
VL: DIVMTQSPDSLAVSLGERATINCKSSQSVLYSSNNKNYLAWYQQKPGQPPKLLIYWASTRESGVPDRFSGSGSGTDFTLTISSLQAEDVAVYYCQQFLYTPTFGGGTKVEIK
notes: IgG
B4: BIIB-9-592 (antibody, V domains shown)
VH: QLQLQESGPGLVKPSETLSLTCTVSGGSISSNSYYWGWIRQPPGKGLEWIGSIYYSGSTYYNPSLKSRVTISVDTSKNQFSLKLSSVTAADTAVYYCARDSNYDSSGYALYYYGMDVWGQGTTVTVSS
VL: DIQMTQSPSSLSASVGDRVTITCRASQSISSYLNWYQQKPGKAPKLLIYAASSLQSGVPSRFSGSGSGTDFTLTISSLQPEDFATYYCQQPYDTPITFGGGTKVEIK
notes: IgG
B5: BIIB-9-425 (antibody, V domains shown)
VH: QVQLVQSGAEVKKPGASVKVSCKASGYTFTSYYMHWVRQAPGQGLEWMGIINPSGGSTSYAQKFQGRVTMTRDTSTSTVYMELSSLRSEDTAVYYCAREPTWDVAYDYWGQGTLVTVS
VL: EIVLTQSPGTLSLSPGERATLSCRASQSVSSDYLAWYQQKPGQAPRLLIYGASSRATGIPDRFSGSGSGTDFTLTISRLEPEDFAVYYCQQYDSHPYTFGGGTKVEIK
notes: IgG
B6: BIIB-9-621 (antibody, V domains shown)
VH: QLQLQESGPGLVKPSETLSLTCTVSGGSISSSSYYWGWIRQPPGKGLEWIGSIYYSGSTYYNPSLKSRVTISVDTSKNQFSLKLSSVTAADTAVYYCARDGSISGSRFDYWGQGTLVTVSS
VL: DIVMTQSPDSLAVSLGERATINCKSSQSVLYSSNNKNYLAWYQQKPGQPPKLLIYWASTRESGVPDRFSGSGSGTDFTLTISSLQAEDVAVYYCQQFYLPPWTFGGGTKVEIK
notes: IgG
B7: BIIB-9-566 (antibody, V domains shown)
VH: QVQLVQSGAEVKKPGASVKVSCKASGYTFTSYYMVWVRQAPGQGLEWMGIINPSGGSTSYAQKFQGRVTMTRDTSTSTVYMELSSLRSEDTAVYYCARVPTYRYSYLAFDIWGQGTMVTVSS
VL: EIVMTQSPATLSVSPGERATLSCRASQSVSSSLAWYQQKPGQAPRLLIYGASTRATGIPARFSGSGSGTEFTLTISSLQSEDFAVYYCQQHDNWPPTFGGGTKVEIK
notes: IgG
B8: BIIB-9-469 (antibody, V domains shown)
VH: QVQLVQSGAEVKKPGASVKVSCKASGYTFTSYYMHWVRQAPGQGLEWMGIINPSGGSTSYAQKFQGRVTMTRDTSTSTVYMELSSLRSEDTAVYYCARDLGYGRSYDFDLWGRGTLVTVSS
VL: B7 VL with S32N, Y49F, H91S, D92N, W94F, P96F
notes: IgG
B9: BIIB-9-452 (antibody, V domains shown)
VH: QVQLVQSGAEVKKPGASVKVSCKASGYTFTSYYMHWVRQAPGQGLEWMGIINPSGGSTSYAQKFQGRVTMTRDTSTSTVYMELSSLRSEDTAVYYCARDGRLSYTWDRWGQGTLVTVSS
VL: B7 VL with S32N, H91A, D92N, W94F, P96F
notes: IgG
B10: BIIB-9-477 (antibody, V domains shown)
VH: EVQLLESGGGLVQPGGSLRLSCAASGFTFSNYAMSWVRQAPGKGLEWVSAISGSGGSTYYADSVKGRFTISRDNSKNTLYLQMNSLRAEDTAVYYCARGGVYSSSWMRFWGQGTLVTVSS
VL: B7 VL with Y49F, H91D, D92V, P96I
notes: IgG
B11: BIIB-9-461 (antibody, V domains shown)
VH: QVQLVQSGAEVKKPGASVKVSCKASGYTFTSYYMHWVRQAPGQGLEWMGIINPSGGSTSYAQKFQGRVTMTRDTSTSTVYMELSSLRSEDTAVYYCARGPTDSSGYLDMDVWGKGTTVTVSS
VL: B7 VL with D92H, N93H
notes: IgG
B12: BIIB-9-622 (antibody, V domains shown)
VH: B7 VH with V35H, V99D, P100G, T101A, Y102T, R103T, Y104V, A108S
VL: B7 VL with D92S, N93T
notes: IgG
B13: BIIB-9-440 (antibody, V domains shown)
VH: QLQLQESGPGLVKPSETLSLTCTVSGGSISSSDYYWGWIRQPPGKGLEWIGSIYYSGSTYYNPSLKSRVTISVDTSKNQFSLKLSSVTAADTAVYYCARSPRHKVRGPNWFDPWGQGTLVTVSS
VL: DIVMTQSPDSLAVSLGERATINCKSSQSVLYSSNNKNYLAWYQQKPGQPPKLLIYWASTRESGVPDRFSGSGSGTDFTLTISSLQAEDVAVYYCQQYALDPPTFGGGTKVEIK
notes: IgG
B14: BIIB-9-414 (antibody, V domains shown)
VH: B8 VH with L100P, G101Y, Y102S, G103Y, R104G, S105M, D107Y, L110Y, R113Q
VL: DIQMTQSPSSVSASVGDRVTITCRASQGISSWLAWYQQKPGKAPKLLIYAASSLQSGVPSRFSGSGSGTDFTLTISSLQPEDFATYYCQQGDVFPFTFGGGTKVEIK
notes: IgG
B15: BIIB-9-605 (antibody, V domains shown)
VH: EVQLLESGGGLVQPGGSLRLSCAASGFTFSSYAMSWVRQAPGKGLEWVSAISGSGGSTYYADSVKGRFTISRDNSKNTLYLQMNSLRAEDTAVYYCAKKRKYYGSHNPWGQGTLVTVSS
VL: B14 VL with G91A
notes: IgG
B16: BIIB-9-564 (antibody, V domains shown)
VH: QVQLQESGPGLVKPSETLSLTCAVSGYSISSGYYWAWIRQPPGKGLEWIGSIYHSGSTYYNPSLKSRVTISVDTSKNQFSLKLSSVTAADTAVYYCARDPGYSWEYFDYWGQGTLVTVSS
VL: B14 VL with V11L, G28S, W32Y, A34N, G91S, D92V, V93A, F94V, F96P
notes: IgG; also called BIB-4-564
B17: BIIB-9-479 (antibody, V domains shown)
VH: QVQLQESGPGLVKPSETLSLTCTVSGGSISSYYWSWIRQPPGKGLEWIGSIYYSGSTNYNPSLKSRVTISVDTSKNQFSLKLSSVTAADTAVYYCAREHYGDYPLFDIWGQGTMVTVSS
VL: DIQMTQSPSTLSASVGDRVTITCRASQSISSWLAWYQQKPGKAPKLLIYKASSLESGVPSRFSGSGSGTEFTLTISSLQPDDFATYYCQQYRILSPTFGGGTKVEIK
notes: IgG
B18: BIIB-9-465 (antibody, V domains shown)
VH: B9 VH with H35V, D99S, G100P, R101T, L102D, S103G, T105Y, W106F, R108L, Q111R
VL: B17 VL with S30N, Y49S, K50D, R92E, L94F, S95P, P96F
notes: IgG
B19: BIIB-9-558 (antibody, V domains shown)
VH: EVQLVESGGGLVKPGGSLRLSCAASGFTFSSYSMNWVRQAPGKGLEWVSSISSSSSYIYYADSVKGRFTISRDNAKNSLYLQMNSLRAEDTAVYYCARSYGYGYHDFDLWGRGTLVTVSS
VL: B17 VL with S30G, Y91A, R92G, I93S, L94Y, P96F
notes: IgG
B20: BIIB-9-590 (antibody, V domains shown)
VH: QVQLVQSGAEVKKPGASVKVSCKASGYTFTSYYMHWVRQAPGQGLEWMGIINPSGGSTSYAQKFQGRVTMTRDTSTSTVYMELSSLRSEDTAVYYCARDQEWAYYGMDVWGQGTTVTVSS
VL: EIVLTQSPATLSLSPGERATLSCRASQSVSSYLAWYQQKPGQAPRLLIYDASNRATGIPARFSGSGSGTDFTLTISSLEPEDFAVYYCQQVDNFPLTFGGGTKVEIK
notes: IgG
B21: BIIB-9-415 (antibody, V domains shown)
VH: B20 VH with Q100G, E101L, W102S, A103S, Y104G, G106Y, M107W, V109N, T115L
VL: B14 VL with S30D, V93A
notes: IgG
B22: BIIB-9-460 (antibody, V domains shown)
VH: QVQLVQSGAEVKKPGASVKVSCKASGYTFTSYYMHWVRQAPGQGLEWMGIINPSGGSTSYAQKFQGRVTMTRDTSTSTVYMELSSLRSEDTAVYYCARDISTDGESSLYYYMDVWGKGTTVTVSS
VL: B7 VL with S32N, W94F, P96F
notes: IgG
B23: BIIB-9-616 (antibody, V domains shown)
VH: QVQLVQSGAEVKKPGASVKVSCKASGYTFTSYYMHWVRQAPGQGLEWMGIINPSGGSTSYAQKFQGRVTMTRDTSTSTVYMELSSLRSEDTAVYYCARGGSKYFFDLWGRGTLVTVSS
VL: B7 VL with H91A, W94F, P96F
notes: IgG
B24: BIIB-9-627 (antibody, V domains shown)
VH: QVQLVQSGAEVKKPGASVKVSCKASGYTFTSYYMHWVRQAPGQGLEWMGIINPSGGSTSYAQKFQGRVTMTRDTSTSTVYMELSSLRSEDTAVYYCARADYDYWSGYGGLGMDVWGQGTTVTVSS
VL: not shown
notes: IgG
B25: BIIB-9-567 (antibody, V domains shown)
VH: B11 VH with G99L, P100G, T101R, D102R, S103Y, S104Y, G105A, L107D, D108G, K114Q
VL: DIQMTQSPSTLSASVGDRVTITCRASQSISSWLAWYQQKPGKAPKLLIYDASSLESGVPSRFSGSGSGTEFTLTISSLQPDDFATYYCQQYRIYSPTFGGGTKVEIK
notes: IgG

target: T1, FIXa-SM (FIXa+EGR-CMK) (human, UniProt P00740 47-191; P00740 227-461, EGR-CMK (L-Glu-Gly-Arg chloromethyl ketone) covalently bound to the active site); experiment: BLI; class meaning: paragraph 914
T1 construct: BLI antigen bought from Haematologic Technologies (HCIXA-EGR); also called FIXa with substrate mimic

| binding result | Binder |
| --- | --- |
| binds | B1 |
| binds | B2 |
| binds | B3 |
| binds | B4 |
| binds | B5 |
| binds | B6 |
| binds | B7 |
| binds | B8 |
| binds | B9 |
| binds | B10 |
| binds | B11 |
| binds | B12 |
| binds | B13 |
| binds | B14 |
| binds | B15 |
| binds | B16 |
| binds | B17 |
| binds | B18 |
| binds | B19 |
| binds | B20 |
| binds | B21 |
| binds | B22 |
| binds | B23 |
| binds | B24 |
| binds | B25 |
